From patent US20260167699A1 (Chugai, published 2026)
Numbering of substitutions follows the chain as printed.

T1: FcγRIIa(R) (human, UniProt P12318 34-217)
T1 construct: extracellular domain; also called 2aR
T1 sequence: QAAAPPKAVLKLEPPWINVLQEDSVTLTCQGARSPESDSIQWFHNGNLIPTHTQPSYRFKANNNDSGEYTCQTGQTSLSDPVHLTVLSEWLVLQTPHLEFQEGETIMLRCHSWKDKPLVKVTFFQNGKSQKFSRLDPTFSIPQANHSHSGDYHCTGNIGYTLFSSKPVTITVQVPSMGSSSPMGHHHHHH

T2: FcγRIIa(H) (human, UniProt P12318 34-217)
T2 construct: extracellular domain; also called 2aH
T2 sequence: T1 sequence with R134H

T3: FcγRIIb (human, UniProt P31994 43-217)
T3 construct: extracellular domain; also called 2b
T3 sequence: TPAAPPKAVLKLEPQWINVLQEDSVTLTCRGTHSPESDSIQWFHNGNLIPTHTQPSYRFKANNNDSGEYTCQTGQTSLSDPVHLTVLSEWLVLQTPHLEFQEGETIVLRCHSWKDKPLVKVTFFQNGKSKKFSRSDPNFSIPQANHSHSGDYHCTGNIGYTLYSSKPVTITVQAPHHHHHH

B1: GpH7-A5/GpH7-B3 variant P329_10E/GpL16-k0 (antibody, human IgG1, kappa)
heavy 1: not shown
heavy 2: not shown
light: DIVMTQSPLSLPVTPGEPASISCQASESLVHSNRNTYLHWYLQKPGQSPQLLIYKVSNRFSGVPDRFSGSGSGTDFTLKISRVEAEDVGVYYCSQNTHVPPTFGQGTKVEIERTVAAPSVFIFPPSDEQLKSGTASVVCLLNNFYPREAKVQWKVDNALQSGNSQESVTEQDSKDSTYSLSSTLTLSKADYEKHKVYACEVTHQGLSSPVTKSFNRGEC
notes: He Ab: heterodimerized IgG1, one H chain mutated
B2: GpH7-A5/GpH7-B3 variant S298_06M/GpL16-k0 (antibody, human IgG1, kappa)
heavy 1: not shown
heavy 2: not shown
light: B1 light
notes: as for B1
B3: GpH7-A5/GpH7-B3 variant S324_04F/GpL16-k0 (antibody, human IgG1, kappa)
heavy 1: not shown
heavy 2: not shown
light: B1 light
notes: as for B1
B4: GpH7-A5/GpH7-B3 variant S298_14T/GpL16-k0 (antibody, human IgG1, kappa)
heavy 1: not shown
heavy 2: not shown
light: B1 light
notes: as for B1
B5: GpH7-A5/GpH7-B3 variant S298_19Q/GpL16-k0 (antibody, human IgG1, kappa)
heavy 1: not shown
heavy 2: not shown
light: B1 light
notes: as for B1
B6: GpH7-A5/GpH7-B3 variant S298_08L/GpL16-k0 (antibody, human IgG1, kappa)
heavy 1: not shown
heavy 2: not shown
light: B1 light
notes: as for B1
B7: GpH7-A5/GpH7-B3 variant S298_11K/GpL16-k0 (antibody, human IgG1, kappa)
heavy 1: not shown
heavy 2: not shown
light: B1 light
notes: as for B1
B8: GpH7-A5/GpH7-B3 variant S298_04F/GpL16-k0 (antibody, human IgG1, kappa)
heavy 1: not shown
heavy 2: not shown
light: B1 light
notes: as for B1
B9: GpH7-A5/GpH7-B3 variant S324_08L/GpL16-k0 (antibody, human IgG1, kappa)
heavy 1: not shown
heavy 2: not shown
light: B1 light
notes: as for B1
B10: GpH7-A5/GpH7-B3 variant S324_06M/GpL16-k0 (antibody, human IgG1, kappa)
heavy 1: not shown
heavy 2: not shown
light: B1 light
notes: as for B1
B11: GpH7-A5/GpH7-B3 variant S298_01G/GpL16-k0 (antibody, human IgG1, kappa)
heavy 1: not shown
heavy 2: not shown
light: B1 light
notes: as for B1
B12: GpH7-A5/GpH7-B3 variant S298_02A/GpL16-k0 (antibody, human IgG1, kappa)
heavy 1: not shown
heavy 2: not shown
light: B1 light
notes: as for B1
B13: GpH7-A5/GpH7-B3 variant S298_12R/GpL16-k0 (antibody, human IgG1, kappa)
heavy 1: not shown
heavy 2: not shown
light: B1 light
notes: as for B1
B14: GpH7-A5/GpH7-B3 variant S298_03V/GpL16-k0 (antibody, human IgG1, kappa)
heavy 1: not shown
heavy 2: not shown
light: B1 light
notes: as for B1
B15: GpH7-A5/GpH7-B3 variant S324_07I/GpL16-k0 (antibody, human IgG1, kappa)
heavy 1: not shown
heavy 2: not shown
light: B1 light
notes: as for B1
B16: GpH7-A5/GpH7-B3 variant S298_07I/GpL16-k0 (antibody, human IgG1, kappa)
heavy 1: not shown
heavy 2: not shown
light: B1 light
notes: as for B1
B17: GpH7-A5/GpH7-B3 variant S324_02A/GpL16-k0 (antibody, human IgG1, kappa)
heavy 1: not shown
heavy 2: not shown
light: B1 light
notes: as for B1
B18: GpH7-A5/GpH7-B3 variant S298_16H/GpL16-k0 (antibody, human IgG1, kappa)
heavy 1: not shown
heavy 2: not shown
light: B1 light
notes: as for B1
B19: GpH7-A5/GpH7-B3 variant S298_15Y/GpL16-k0 (antibody, human IgG1, kappa)
heavy 1: not shown
heavy 2: not shown
light: B1 light
notes: as for B1
B20: GpH7-A5/GpH7-B3 variant S324_01G/GpL16-k0 (antibody, human IgG1, kappa)
heavy 1: not shown
heavy 2: not shown
light: B1 light
notes: as for B1
B21: GpH7-A5/GpH7-B3 variant S324_03V/GpL16-k0 (antibody, human IgG1, kappa)
heavy 1: not shown
heavy 2: not shown
light: B1 light
notes: as for B1
B22: GpH7-A5/GpH7-B3 variant S324_10E/GpL16-k0 (antibody, human IgG1, kappa)
heavy 1: not shown
heavy 2: not shown
light: B1 light
notes: as for B1
B23: GpH7-A5/GpH7-B3 variant Q295_01G/GpL16-k0 (antibody, human IgG1, kappa)
heavy 1: not shown
heavy 2: not shown
light: B1 light
notes: as for B1
B24: GpH7-A5/GpH7-B3 variant S324_09D/GpL16-k0 (antibody, human IgG1, kappa)
heavy 1: not shown
heavy 2: not shown
light: B1 light
notes: as for B1

Key:
Test in all cases: SPR, relative to GpH7-A5/GpH7-B3/GpL16-k0 =100
FcγRIa = molecular target: T4, FcγRIa (human, UniProt P12314 16-292)
T4 construct: extracellular domain; also called 1a
T4 sequence (P12314 other isoform, or with tags, fused parts or gaps): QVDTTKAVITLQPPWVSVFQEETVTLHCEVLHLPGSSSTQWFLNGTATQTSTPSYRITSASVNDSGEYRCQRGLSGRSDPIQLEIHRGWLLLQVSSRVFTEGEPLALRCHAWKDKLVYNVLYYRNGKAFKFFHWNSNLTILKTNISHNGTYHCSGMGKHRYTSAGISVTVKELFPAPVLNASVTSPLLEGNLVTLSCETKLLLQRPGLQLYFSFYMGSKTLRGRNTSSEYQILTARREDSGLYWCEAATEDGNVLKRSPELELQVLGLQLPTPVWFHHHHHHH

FcγRIIa(R) = molecular target: T1, FcγRIIa(R)
FcγRIIa(H) = molecular target: T2, FcγRIIa(H)
FcγRIIb = molecular target: T3, FcγRIIb

Row | Binder | He/Con 1a (FcγRIa) | He/Con 2aR (FcγRIIa(R)) | He/Con 2aH (FcγRIIa(H)) | He/Con 2b (FcγRIIb)
1 | B1 | 81.4% | 72.7% | 57.6% | 59.5%
2 | B2 | 111% | 104% | 95.8% | 103%
3 | B3 | 103% | 99.6% | 106% | 99.9%
4 | B4 | 104% | 94.2% | 96.2% | 79%
5 | B5 | 106% | 90.9% | 88.9% | 74.3%
6 | B6 | 104% | 100% | 83% | 110%
7 | B7 | 106% | 91% | 63.9% | 62.2%
8 | B8 | 106% | 80.4% | 75.5% | 66.3%
9 | B9 | 97.3% | 110% | 106% | 117%
10 | B10 | 104% | 118% | 122% | 126%
11 | B11 | 100% | 94.5% | 71.4% | 81.2%
12 | B12 | 103% | 87.2% | 74.3% | 74.4%
13 | B13 | 106% | 81.6% | 67.4% | 58.6%
14 | B14 | 106% | 82.5% | 83.2% | 65.4%
15 | B15 | 96.2% | 109% | 107% | 125%
16 | B16 | 104% | 86.2% | 84.9% | 71.5%
17 | B17 | 96.9% | 99.9% | 114% | 102%
18 | B18 | 105% | 84.7% | 80.2% | 64.4%
19 | B19 | 104% | 75.7% | 71.2% | 62.2%
20 | B20 | 93.2% | 94.4% | 110% | 106%
21 | B21 | 97.7% | 113% | 108% | 128%
22 | B22 | 98.9% | 99% | 114% | 101%
23 | B23 | 96.1% | 60.3% | 62.5% | 51.6%
24 | B24 | 97.7% | 102% | 117% | 112%
